From PMC5360526 (Hepatology (Baltimore, Md.), 2017)

Biological target: Recombinant human MATα1 (human, UniProt Q00266 1-395)
Assay: pull-down

Chain of Recombinant human MATα1 (Q00266 whole entry): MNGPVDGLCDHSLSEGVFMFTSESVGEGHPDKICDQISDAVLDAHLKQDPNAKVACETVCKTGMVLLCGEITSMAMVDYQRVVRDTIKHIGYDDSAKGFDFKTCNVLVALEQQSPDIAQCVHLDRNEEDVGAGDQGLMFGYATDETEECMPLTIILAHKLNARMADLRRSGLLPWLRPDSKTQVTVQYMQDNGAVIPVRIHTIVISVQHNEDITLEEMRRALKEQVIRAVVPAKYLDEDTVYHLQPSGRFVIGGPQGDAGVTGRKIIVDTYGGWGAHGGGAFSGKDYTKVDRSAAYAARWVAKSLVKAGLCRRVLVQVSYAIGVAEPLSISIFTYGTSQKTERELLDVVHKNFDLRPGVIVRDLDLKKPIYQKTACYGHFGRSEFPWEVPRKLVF

binding result: binds
B1: Recombinant human PHB1 (natural protein, UniProt P35232 1-272, looked up)
chain: MAAKVFESIGKFGLALAVAGGVVNSALYNVDAGHRAVIFDRFRGVQDIVVGEGTHFLIPWVQKPIIFDCRSRPRNVPVITGSKDLQNVNITLRILFRPVASQLPRIFTSIGEDYDERVLPSITTEILKSVVARFDAGELITQRELVSRQVSDDLTERAATFGLILDDVSLTHLTFGKEFTEAVEAKQVAQQEAERARFVVEKAEQQKKAAIISAEGDSKAAELIANSLATAGDGLIELRKLEAAEDIAYQLSRSRNITYLPAGQSVLLQLPQ
